Measurements as given in patent publication US20220324970A1 (Janssen / Centocor, published 2022).
Where two headings read alike, the source gives them in different places.

T1: hpIgR_D2-D3
T1 construct: HIS-tagged construct from HEK293 cells; also called human pIgR extracellular domain 2-domain 3 (D2-D3); hD2-D3
T1 HIS-tagged domain construct: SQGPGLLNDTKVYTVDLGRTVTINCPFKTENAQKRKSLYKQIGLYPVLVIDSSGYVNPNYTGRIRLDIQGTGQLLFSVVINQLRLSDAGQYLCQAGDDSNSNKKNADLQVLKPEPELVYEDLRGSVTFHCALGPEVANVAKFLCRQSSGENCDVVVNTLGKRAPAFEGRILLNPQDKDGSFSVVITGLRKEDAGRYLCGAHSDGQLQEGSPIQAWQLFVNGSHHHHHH

T2: hpIgR_D3
T2 construct: HIS-tagged construct from HEK293 cells; also called human pIgR extracellular domain 3 (D3); hD3
T2 HIS-tagged domain construct: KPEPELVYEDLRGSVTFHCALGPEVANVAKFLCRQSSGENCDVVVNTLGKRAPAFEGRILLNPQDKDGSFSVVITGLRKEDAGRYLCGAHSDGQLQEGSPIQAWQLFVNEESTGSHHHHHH

T3: human pIgR extracellular domain 4-domain 5 (D4-D5) (human, UniProt P01833 350-565)
T3 construct: HIS-tagged construct made in HEK293 cells; also called hpIgR domains 4-5
T3 chain: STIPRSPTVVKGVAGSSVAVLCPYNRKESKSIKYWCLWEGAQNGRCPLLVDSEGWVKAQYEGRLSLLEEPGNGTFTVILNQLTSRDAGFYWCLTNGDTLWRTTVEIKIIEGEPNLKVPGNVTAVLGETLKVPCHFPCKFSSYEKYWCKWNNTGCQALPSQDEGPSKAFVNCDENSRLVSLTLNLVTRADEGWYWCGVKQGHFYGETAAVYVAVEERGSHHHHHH

B1: VHH5-linker-mono-Fc protein (Fc fusion)
chain: QVQLVESGGGLVQAGGSLRLSCAASGRTFSSYAMGWFRQAPGKEREFVAAITWNGGTTYYADSVKGRFTISRDNAKNTVYLQMNSLKPEDTAVYYCAADPFNQGYWGQGTQVTVSSEPKTPKPQPQPQLQPQPNPTTESKSPKSPAPELLGGPSVFLFPPKPKDTLMISRTPEVTCVVVDVSHEDPEVKFNWYVDGVEVHNAKTKPREEQYNSTYRVVSVLTVLHQDWLNGKEYKCKVSNKALPAPIEKTISKAKGQPREPQVYTKPPSREEMTKNQVSLSCLVKGFYPSDIAVEWESNGQPENNYKTTVPVLDSDGSFRLASYLTVDKSRWQQGNVFSCSVMHEALHNHYTQKSLSLSPGK
notes: made in CHO cells; also called VHH5-mono-Fc; hpIgR_175
B2: VHH7-linker-mono-Fc protein (Fc fusion)
chain: EVQVVESGGGLVQAGGSLRLACVASRSIGSINVMGWYRQAPGKQRDLVARITGGGSTHYAESVKGRFTISRDNAKNTVYLQMNSLEPEDTAVYYCASMVNPIITAWGTIGVREIPDYDYWGQGTQVTVSSEPKTPKPQPQPQLQPQPNPTTESKSPKSPAPELLGGPSVFLFPPKPKDTLMISRTPEVTCVVVDVSHEDPEVKFNWYVDGVEVHNAKTKPREEQYNSTYRVVSVLTVLHQDWLNGKEYKCKVSNKALPAPIEKTISKAKGQPREPQVYTKPPSREEMTKNQVSLSCLVKGFYPSDIAVEWESNGQPENNYKTTVPVLDSDGSFRLASYLTVDKSRWQQGNVFSCSVMHEALHNHYTQKSLSLSPGK
notes: made in CHO cells; also called VHH7-mono-Fc; hpIgR_198
B3: VHH11-linker-mono-Fc protein (Fc fusion)
chain: EVQVVESGGGLVQAGGSLRLSCAASGRTFTTYRMGWFRQAPGKEREFVAAIRWSGGRTLYADSVKGRFTISRDNAKNTAYLQMNNLRPEDTAVYYCAADLAEYSGTYSSPADSPAGYDYWGQGTQVTVSSEPKTPKPQPQPQLQPQPNPTTESKSPKSPAPELLGGPSVFLFPPKPKDTLMISRTPEVTCVVVDVSHEDPEVKFNWYVDGVEVHNAKTKPREEQYNSTYRVVSVLTVLHQDWLNGKEYKCKVSNKALPAPIEKTISKAKGQPREPQVYTKPPSREEMTKNQVSLSCLVKGFYPSDIAVEWESNGQPENNYKTTVPVLDSDGSFRLASYLTVDKSRWQQGNVFSCSVMHEALHNHYTQKSLSLSPGK
notes: made in CHO cells; also called VHH11-mono-Fc; hpIgR_250

What was measured:
[1] = target: T4, human pIgR extracellular domain 1-domain 2 (D1-D2) (human, UniProt P01833 19-240); experiment: ECL (MSD) heat map, HIS-tagged construct captured via anti-HIS, anti-human-Fc detection
T4 construct: HIS-tagged construct made in HEK293 cells
T4 sequence (P01833 other isoform, or with tags, fused parts or gaps limits assumed): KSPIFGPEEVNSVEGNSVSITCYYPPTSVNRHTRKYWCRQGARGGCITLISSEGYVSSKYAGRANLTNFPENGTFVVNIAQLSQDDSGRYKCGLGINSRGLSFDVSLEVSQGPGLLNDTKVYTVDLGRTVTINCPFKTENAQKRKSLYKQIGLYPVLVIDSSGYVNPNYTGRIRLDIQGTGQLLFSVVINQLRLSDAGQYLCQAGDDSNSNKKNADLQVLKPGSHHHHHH

hpIgR_D2-D3 = target: T1, hpIgR_D2-D3; experiment: as above
[2] = target: T5, human pIgR extracellular domain (ECD) (human, UniProt P01833 19-638); experiment: BLI (Octet RED384), 1:1 fit, 25 C, PBS
T5 construct: also called hpIgR ECD
T5 sequence (P01833 other isoform, or with tags, fused parts or gaps): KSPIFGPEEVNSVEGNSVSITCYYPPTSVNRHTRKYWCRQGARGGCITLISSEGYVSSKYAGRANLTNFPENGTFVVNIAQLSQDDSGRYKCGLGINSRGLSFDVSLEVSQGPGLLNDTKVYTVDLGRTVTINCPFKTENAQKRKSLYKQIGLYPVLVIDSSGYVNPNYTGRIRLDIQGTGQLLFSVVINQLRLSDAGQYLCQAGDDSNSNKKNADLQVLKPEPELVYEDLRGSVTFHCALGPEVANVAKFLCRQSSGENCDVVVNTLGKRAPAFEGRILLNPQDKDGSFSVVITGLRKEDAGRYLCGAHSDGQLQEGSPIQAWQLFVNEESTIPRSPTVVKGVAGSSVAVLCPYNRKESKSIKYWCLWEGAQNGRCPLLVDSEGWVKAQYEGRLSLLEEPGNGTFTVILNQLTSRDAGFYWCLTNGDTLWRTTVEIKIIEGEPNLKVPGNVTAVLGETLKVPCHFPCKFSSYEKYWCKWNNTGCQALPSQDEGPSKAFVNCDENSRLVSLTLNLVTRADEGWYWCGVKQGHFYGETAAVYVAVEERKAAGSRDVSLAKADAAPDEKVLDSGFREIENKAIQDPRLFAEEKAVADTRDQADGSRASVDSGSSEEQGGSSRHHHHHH

[3] = target: T5, human pIgR extracellular domain (ECD); experiment: BLI; summary table, repeats Table 1
[4] = target: T5, human pIgR extracellular domain (ECD); experiment: BLI; summary table, repeats Table 1; remark: listed apart in the source
[5] = target: T6, human pIgR, full-length, on cells (human, UniProt P01833 19-764); experiment: flow cytometry on MDCK-hpIgR cells
T6 construct: whole, on cells; Used for the flow cytometry EC50 values (MDCK-hpIgR) and for the transcytosis read-outs; also called hpIgR; cell-surface hpIgR
T6 sequence (P01833 19-764): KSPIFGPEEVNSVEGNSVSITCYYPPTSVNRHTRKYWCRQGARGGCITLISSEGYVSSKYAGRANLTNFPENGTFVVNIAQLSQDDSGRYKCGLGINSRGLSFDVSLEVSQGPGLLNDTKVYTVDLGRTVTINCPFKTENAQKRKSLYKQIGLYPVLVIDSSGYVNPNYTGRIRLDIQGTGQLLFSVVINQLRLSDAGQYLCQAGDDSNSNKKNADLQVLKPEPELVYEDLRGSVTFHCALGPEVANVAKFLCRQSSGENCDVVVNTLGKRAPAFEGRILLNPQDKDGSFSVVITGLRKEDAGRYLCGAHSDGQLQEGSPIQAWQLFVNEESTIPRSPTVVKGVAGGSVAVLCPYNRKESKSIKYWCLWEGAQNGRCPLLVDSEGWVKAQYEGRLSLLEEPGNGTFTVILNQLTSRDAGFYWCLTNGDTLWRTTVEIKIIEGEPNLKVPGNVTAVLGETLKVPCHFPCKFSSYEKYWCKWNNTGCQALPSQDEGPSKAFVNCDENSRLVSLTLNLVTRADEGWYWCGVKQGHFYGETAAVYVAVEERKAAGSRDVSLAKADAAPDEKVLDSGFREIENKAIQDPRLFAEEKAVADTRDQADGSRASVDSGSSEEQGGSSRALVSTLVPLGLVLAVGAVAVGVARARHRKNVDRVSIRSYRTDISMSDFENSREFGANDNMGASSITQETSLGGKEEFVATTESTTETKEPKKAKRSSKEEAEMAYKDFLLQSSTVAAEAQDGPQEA

[6] = target: T6, human pIgR, full-length, on cells; experiment: cell-based or functional assay
[7] = target: T5, human pIgR extracellular domain (ECD); experiment: BLI (Octet RED384), 1:1 fit, 25 C, PBS; column kdis
[8] = target: T5, human pIgR extracellular domain (ECD); experiment: ECL (MSD), hpIgR-ECD coated, anti-Fc detection
[9] = target: T7, human pIgR extracellular domain 1 (D1) (human, UniProt P01833 19-127); experiment: ECL (MSD) heat map, HIS-tagged construct captured via anti-HIS, anti-human-Fc detection;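 also: VHH-mono-Fc molecules tested at 100 µg/ml for 2 h on captured His-tagged pIgR constructs (10 µg/ml), read-out as electrochemiluminescence units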
T7 construct: HIS-tagged construct made in HEK293 cells; also called hpIgR domain-1
T7 sequence (P01833 other isoform, or with tags, fused parts or gaps limits assumed): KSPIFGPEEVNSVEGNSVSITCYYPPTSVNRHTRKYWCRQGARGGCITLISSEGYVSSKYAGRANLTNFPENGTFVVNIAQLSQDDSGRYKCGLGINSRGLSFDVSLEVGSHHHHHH

[10] = target: T8, human pIgR extracellular domain 2 (D2) (human, UniProt P01833 128-242); experiment: as above
T8 construct: HIS-tagged construct made in HEK293 cells; also called hpIgR domain 2

[11] = target: T9, human pIgR extracellular domain 5 (D5) (human, UniProt P01833 460-565); experiment: as above
T9 construct: HIS-tagged construct made in HEK293 cells; also called hpIgR domain 5

hpIgR_D3 = target: T2, hpIgR_D3; experiment: as above
[12] = target: T5, human pIgR extracellular domain (ECD); experiment: BLI (Octet), VHH-mono-Fc and hpIgR ectodomain
[13] = target: T5, human pIgR extracellular domain (ECD); experiment: ECL (MSD), hpIgR-ECD coated, anti-VHH detection
[14] = target: T6, human pIgR, full-length, on cells; experiment: flow cytometry on MDCK-hpIgR cells; summary table, repeats Table 1
Experimental: Flow Cytometry was performed as follows. To test whether VHH-mono-Fc molecules recognize cell-surface hpIgR, Madin-Darby canine kidney (MDCK) cells engineered to express full-length hpIgR were used. Cells were cultured in Dulbecco's modified Eagle's medium containing 10% fetal calf serum at 37° C. with 5% CO₂. Cells were split into equal fractions (≈70,000 cells) and incubated with increasing concentrations of VHH-mono-Fc molecules for 30 min at 4 C. […] Cells were washed twice with cold staining buffer, resuspended in running buffer and analyzed with an iQue Screener (IntelliCyt Corporation). Binding was assessed by RL1 (A647) Geomeans from the live cell population and EC50 was calculated by fitting log VHH concentration versus MFI in Prism (Graphpad).

[15] = target: T6, human pIgR, full-length, on cells; experiment: as above; remark: listed apart in the source
[16] = target: T3, human pIgR extracellular domain …; experiment: BLI (Octet RED384), 1:1 fit, 25 C, PBS; antigen printed 'hD4 D5'
Experimental: (§1) Bio-layer Interferometry was performed as follows. […] Data were collected with Octet Data Acquisition version 7.1.0.87 (ForteBio) and analyzed using Octet Data Analysis version 7.1 (ForteBio). To measure binding kinetics between VHH-mono-Fc molecules and HIS-tagged pIgR proteins, VHH-mono-Fc was immobilized on amine-reactive generation-2 (ARG2) biosensors according to manufacturer's instructions and increasing concentrations of pIgR proteins were exposed to sensor-immobilized VHH. In some cases, HIS-tagged pIgR proteins were immobilized on anti-HIS biosensors and exposed to increasing concentrations of VHH-mono-Fc molecules. Association and dissociation rates were measured by the shift in wavelength (nm). […] All reactions were performed at 25° C. in PBS.

[17] = target: T3, human pIgR extracellular domain …; experiment: BLI (Octet RED384), 1:1 fit, 25 C, PBS; column kdis; antigen printed 'hD4 D5'
Experimental: as §1

[18] = target: T5, human pIgR extracellular domain (ECD); experiment: ECL (MSD), anti-VHH detection against anti-Fc detection
[19] = target: T6, human pIgR, full-length, on cells; experiment: cell-based or functional assay; remark: listed apart in the source
[20] = target: T3, human pIgR extracellular domain …; experiment: ECL (MSD) heat map in ECLU: HIS-tagged construct captured via anti-HIS, VHH-mono-Fc 100 ug/ml, anti-human-Fc detection
Experimental: The Electrochemiluminescence assay was performed as follows. A meso-scale discovery (MSD) platform was used for conducting epitope mapping and epitope burial studies. To test the binding of VHH-mono-Fc molecules to purified pIgR protein constructs, Streptavidin MSD plates were coated with a biotinylated anti-HIS antibody (2 μg/ml in PBS) for 1 hour at RT with 1000 rpm, washed 3× with PBT (PBS+0.1% Tween-20), incubated with blocking buffer for 1 hour at RT, incubated with His-tagged pIgR proteins (10 μg/ml in PBS) for 2 hours at RT with 1000 rpm, washed 3× with PBT, incubated with VHH-mono-Fc molecules (100 μg/ml in PBS) for 2 hours at RT with 1000 rpm, washed 3× with PBT, incubated with ruthenylated-anti-human-Fc antibody (2 μg/ml in PBS) for 1 hour at RT with 1000 rpm, washed 3× with PBT and read plates in 40 ul reading buffer using the MSD imager. ECLU values were plotted as a heatmap.

[21] = target: T9, human pIgR extracellular domain 5 (D5); experiment: ECL (MSD) heat map, HIS-tagged construct captured via anti-HIS, anti-human-Fc detection; remark: listed apart in the source
[22] = target: T3, human pIgR extracellular domain …; experiment: BLI (Octet RED384), 1:1 fit, 25 C, PBS
[23] = target: T3, human pIgR extracellular domain …; experiment: BLI (Octet RED384), 1:1 fit, 25 C, PBS; column kdis
[24] = target: T6, human pIgR, full-length, on cells; experiment: cell-based or functional assay; remark: listed apart in the source

Binder | binding result [1] | binding result (hpIgR_D2-D3) | Kd [2] [nM] | kon [2] [M⁻¹ s⁻¹] | Kd [3] [nM] | Kd [4] [nM] | EC50 [5] [nM] | Transcytosis (Fold Incr.) [6] [fold] | koff [7] [s⁻¹] | EC50 [8] [nM] | binding result [9] | binding result [10] | binding result (hpIgR_D3) | Kd [12] [nM] | EC50 [13] [nM] | EC50 [14] [nM] | EC50 [15] [nM] | Fold change in EC50 [18] [fold] | For. Trans. (Fold Incr.) [19] [fold] | Rev. Trans (Fold Incr.) [19] [fold] | other results
B1 | no binding (tested: 100 ug/ml (single concentration)) | no binding (tested: 100 ug/ml (single concentration)) | 10 | 145000 | 11 | 11 | 4.3 | 6.9 | 0.00145 | 0.3 | no binding (tested: 100 ug/ml (single concentration)) | no binding (tested: 100 ug/ml (single concentration)) | no binding (tested: 100 ug/ml (single concentration)) | 11 | 178 | 4.3 | 4.3 | 592 | 8.9 | 2.1 | binding result [11]: no binding (tested: 100 ug/ml (single concentration)); Kd [16]: 11.6 nM; kon [16]: 111000 M⁻¹ s⁻¹; koff [17]: 0.00128 s⁻¹
B2 |  | no binding (tested: 100 ug/ml (single concentration)) |  |  | 521 | 521 | 36.4 | 1.3 |  | 12.4 | no binding (tested: 100 ug/ml (single concentration)) | no binding (tested: 100 ug/ml (single concentration)) | no binding (tested: 100 ug/ml (single concentration)) | 521 | 31.1 | 36.4 | 36.4 | 2.5 | 1.9 | 3.3 | binding result [11]: no binding (tested: 100 ug/ml (single concentration)); binding result [20]: binds
B3 | no binding (tested: 100 ug/ml (single concentration)) | no binding (tested: 100 ug/ml (single concentration)) | 27.9 | 113000 | 19 | 19 | 1.5 | 32 | 0.00314 | 0.3 | no binding (tested: 100 ug/ml (single concentration)) | no binding (tested: 100 ug/ml (single concentration)) | no binding (tested: 100 ug/ml (single concentration)) | 19 | 0.8 | 1.5 | 1.5 | 3.2 | 24.2 | 10.3 | binding result [21]: no binding (tested: 100 ug/ml (single concentration)); Kd [22]: 15.2 nM; kon [22]: 184000 M⁻¹ s⁻¹; koff [23]: 0.00281 s⁻¹; increase in their apical concentration relative to control VHH (MDCK-hpIgR monolayers) [24]: > 10 fold
